Earlier results in PMC3621282.

Molecular target: VEGFR-2 (Homo sapiens) (UniProt P35968)
UniProt P35968, sequence (P35968 20-1356): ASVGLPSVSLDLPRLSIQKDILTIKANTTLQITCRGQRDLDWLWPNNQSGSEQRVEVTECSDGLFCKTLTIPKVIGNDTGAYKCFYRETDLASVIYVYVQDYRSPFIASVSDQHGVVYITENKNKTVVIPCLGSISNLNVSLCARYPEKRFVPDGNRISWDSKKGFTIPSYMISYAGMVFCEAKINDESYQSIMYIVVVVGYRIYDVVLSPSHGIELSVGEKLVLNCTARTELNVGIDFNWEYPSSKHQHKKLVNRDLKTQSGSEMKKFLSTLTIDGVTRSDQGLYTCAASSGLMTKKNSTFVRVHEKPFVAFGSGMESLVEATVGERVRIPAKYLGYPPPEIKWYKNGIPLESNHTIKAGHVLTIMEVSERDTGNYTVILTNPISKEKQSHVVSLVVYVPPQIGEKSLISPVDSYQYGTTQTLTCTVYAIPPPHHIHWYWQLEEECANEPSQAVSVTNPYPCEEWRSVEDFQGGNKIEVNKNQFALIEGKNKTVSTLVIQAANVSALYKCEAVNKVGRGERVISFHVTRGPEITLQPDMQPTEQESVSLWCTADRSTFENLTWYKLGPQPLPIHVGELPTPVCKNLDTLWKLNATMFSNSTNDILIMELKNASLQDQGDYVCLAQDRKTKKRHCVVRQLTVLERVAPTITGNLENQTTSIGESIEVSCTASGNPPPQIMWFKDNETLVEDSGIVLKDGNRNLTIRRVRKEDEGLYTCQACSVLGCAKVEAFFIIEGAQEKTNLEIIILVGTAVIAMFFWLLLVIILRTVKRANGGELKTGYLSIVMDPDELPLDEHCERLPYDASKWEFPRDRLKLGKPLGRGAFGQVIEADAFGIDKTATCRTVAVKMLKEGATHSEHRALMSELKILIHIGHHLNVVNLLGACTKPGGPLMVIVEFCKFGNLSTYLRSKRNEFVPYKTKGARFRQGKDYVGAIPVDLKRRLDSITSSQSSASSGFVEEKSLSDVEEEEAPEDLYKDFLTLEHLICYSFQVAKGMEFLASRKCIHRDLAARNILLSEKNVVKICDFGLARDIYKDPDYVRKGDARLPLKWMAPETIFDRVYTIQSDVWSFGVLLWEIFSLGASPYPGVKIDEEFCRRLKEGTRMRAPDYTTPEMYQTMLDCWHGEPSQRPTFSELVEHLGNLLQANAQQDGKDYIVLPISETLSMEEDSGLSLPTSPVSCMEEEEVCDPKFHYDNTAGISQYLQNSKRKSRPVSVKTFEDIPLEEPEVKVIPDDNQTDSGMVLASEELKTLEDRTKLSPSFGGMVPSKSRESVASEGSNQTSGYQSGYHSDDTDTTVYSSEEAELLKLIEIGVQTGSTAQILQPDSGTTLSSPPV

Kd: 0.1 nM
Substance: VEGF (from UniProt P15692)
